According to paper PMC12177922, “In Vivo Ribosome-Amplified MetaBOlism, RAMBO, Effect Observed by Real Time Pulse Chase, RTPC, NMR Spectroscopy” (Biochemistry, 2025):

Substrate: Nc1ncnc2c1ncn2[C@@H]1O[C@H](COP(=O)(O)OP(=O)(O)OP(=O)(O)O)[C@@H](O)[C@H]1O
Experiment: direct 1H NMR kinetic assay (FBP peak)
Assay type: biochemical, Geobacillus stearothermophilus
Conditions: 1 mM F6P, 1 nM enzyme, pH 7.5, 10 mM sodium phosphate, 50 mM KCl, 10 mM MgCl2, 10 °C, no ribosomes, fit with substrate inhibition

B1: PFK-A (Geobacillus stearothermophilus) (protein)
chain: MKRIGVLTSGGDSPGMNAAIRSVVRKAIYHGVEVYGVYHGYAGLIAGNIKKLEVGDVGDIIHRGGTILYTARCPEFKTEEGQKKGIEQLKKHGIEGLVVIGGDGSYQGAKKLTEHGFPCVGVPGTIDNDIPGTDFTIGFDTALNTVIDAIDKIRDTATSHERTYVIEVMGRHAGDIALWSGLAGGAETILIPEADYDMNDVIARLKRGHERGKKHSIIIVAEGVGSGVDFGRQIQEATGFETRVTVLGHVQRGGSPTAFDRVLASRLGARAVELLLEGKGGRCVGIQNNQLVDHDIAEALANKHTIDQRMYALSKELSI
notes: commercial lyophilized enzyme (Sigma-Aldrich)
Question: B1 was tested. Which Km did it give?
Answer: 84 ± 9.8 µM

Question: What about the kcat of the same protein?
Answer: 36 ± 1.5 s⁻¹
